For 102 substances, amyloid nucleation score results are on record in the supplement of paper PMC12042874.

± gives the uncertainty stated by the source.

The series can be described thus: amyloid nucleation score (Sup35N fusion, yeast selection) (log enrichment); library NNK2; higher = more nucleation; inactive = no reads after selection. Summed up:
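Nucleation score is defined as the DiMSum log enrichment of output over input reads, with centring on the mode score of non-aggregating sequences. A minimum of 100 input reads was required for each sequence. Reads came from Illumina sequencing of plasmid inserts from psi-negative yeast expressing Sup35N fused to peptides of 20 random codons, induced with 100 μM copper sulfate for 24 hours and grown 7 days at 30°C on medium lacking adenine and uracil.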
Consider SGARPVYFWLLIPLSYKL, for which the amyloid nucleation score was 0.285 ± 1. Regarding DGPLSLNSIHFTWLRAMDKV, the amyloid nucleation score was -0.297 ± 1.1. AQVKKLDRARCRFQRVV registered an amyloid nucleation score of -1.4 ± 0.78. On to CMDQNVEPCSLVWQTYFPCY, for which the amyloid nucleation score is -0.419 ± 0.6. KVLVRHLRCAISPSF came in with an amyloid nucleation score of 0.256 ± 1.

Substance WELVSGVYVTGCTFSSEDVQ displayed an amyloid nucleation score of -0.785 ± 0.29. Substance PSLTVPGVSRYCFS registered an amyloid nucleation score of -1.29 ± 0.75.

SLSYATTFF: the amyloid nucleation score was found to be 0.476 ± 0.24. Regarding CVNYYVYANHRRISYWW, the amyloid nucleation score is -0.337 ± 1.1. As to LYIDLHDEALRTTKMDMLNG, the amyloid nucleation score result was “inactive”. For SLNLGRLYDLSMMLAWLGHQ the value was 2.16 ± 0.17.

HVWLIGFNLFLYFITLVVWV: the amyloid nucleation score was -0.459 ± 1.1. Turning to KFRNCVRKDFLSMHHFSVVF, the amyloid nucleation score is -0.666 ± 0.45. In the case of RMLSLGNYGSNAYICCIVCY, the amyloid nucleation score came out at 1.92 ± 0.36. The substance RMFWLIVQLGGSFDRLYGFR came in with an amyloid nucleation score of 1.21 ± 0.45. With ASTLPYYECEYR, the amyloid nucleation score turned out to be 0.343 ± 0.18. ASSRFDDVINDRIRILVCAV: the amyloid nucleation score is -0.102 ± 0.49. With MHGFNDAYFLCDVSAQGLV, the amyloid nucleation score was -0.128 ± 0.28.

For VLSMDLQVIRSWKICSVSRK, the amyloid nucleation score was determined as 0.799 ± 0.17. Consider MSKYFWVSRGSSIITTW, for which the amyloid nucleation score is -0.539 ± 0.37. With SCENTSSQELWYTCSIDLKL, the amyloid nucleation score stood at 0.472 ± 0.66.

Consider TSKRVFSRVESGTQVLGNEG, for which the amyloid nucleation score was -0.053 ± 0.5.

SINTAVSCFMAGICNGHRSE: the amyloid nucleation score amounted to 8.246 ± 0.061. Consider PKGNSRYMRLIFDAQLSYTG, for which the amyloid nucleation score came to 1.25 ± 0.13.

In the case of NRKCSAESMTEGVRPLDSHY, the amyloid nucleation score result is “inactive”. As for LFRQEAMIPL, the figure is 0.594 ± 0.66; as for VSCNSYMGVLMDDGRVETLE, 0.486 ± 0.2. For GNRYSLCEAYATYLFSLDWY the value was “inactive”; for GLRNDGAEVINSQPFLAHMC, 0.497 ± 0.5.

For LLACLKGTSGAGRIYAYLMT, the amyloid nucleation score was -0.096 ± 0.3. As for LLETMAK, the entry is “inactive”; as for GVDDARTTKAGNWYSVRKGQ, 1.64 ± 0.41. For the substance HKWEAKMGPISVLFRCFGLD, the amyloid nucleation score is 1.09 ± 0.14. In the case of YRILVNFAVVSMVRINRSFW, the amyloid nucleation score is -1.48 ± 0.78. The substance YSWWW gave an amyloid nucleation score of 1.15 ± 0.66. As to CFAIFWLFECTTSSMKMTRV, the amyloid nucleation score came to 0.053 ± 1.1.

In turn, PIDKSVAVLDRREMSDQRIN returned an amyloid nucleation score of -0.753 ± 0.34. As for CGMFWLSRYEFYRISSCRRL, the figure is 1.3 ± 0.14.

Substance VYNSGWQVGWAKGLWSSLYN showed an amyloid nucleation score of -0.409 ± 0.34. Substance NFSFRLYLLLETSIMYIGKT came in with an amyloid nucleation score of -1.3 ± 0.38. As to IRCCAWFDLVSESRSRGTWT, the amyloid nucleation score was 5.43 ± 0.072. In turn, NTLSPFQIEFGGWLMGVLFK yielded an amyloid nucleation score of 0.611 ± 0.81. In the case of AYLQGSLMEKICKISCPVDN, the amyloid nucleation score is -0.387 ± 1.1.

CMRCILASCK came in with an amyloid nucleation score of -0.348 ± 0.34. The substance MLHSRLAREMHTLVILFFNK came in with an amyloid nucleation score of 0.05 ± 0.49. For PCVLKLRSSSKSISCSWGVS the value was 3.85 ± 0.074; for RFFSMVTR, 0.025 ± 0.33; for RNARDSQYDISGACGLFRDR, -0.287 ± 0.27. WVTSDRYKRALARKSHEQRN came in with an amyloid nucleation score of 0.423 ± 0.24. QYKIVVELYMLYNISKNVEG gave an amyloid nucleation score of 2.14 ± 0.16. Turning to YHWWDLLLTLREPVRWRIQP, the amyloid nucleation score came out at 1.55 ± 0.23. With KYVGSWITTDVSFECTVI, the amyloid nucleation score is -0.46 ± 1.

Consider NTEFIFQELRVMSHEVCIHI, for which the amyloid nucleation score entry was “inactive”. As for RFMFGNVKMLCVWAKRMLDI, the figure is 3.16 ± 0.12.

As to CVFRHTVIYGLGAGW, the amyloid nucleation score was found to be 2.65 ± 0.14.

On to SRGLSGNSSASLEKLNRL, for which the amyloid nucleation score came out at 0.072 ± 0.63.

Turning to MYLRYSFLIISCELGDLNSL, the amyloid nucleation score entry was “inactive”. As for IGVRPCTMRC, the amyloid nucleation score amounted to 0.23 ± 0.29. DLFNRNIVVCSLFLGYMVTI registered an amyloid nucleation score of 2.99 ± 0.092. LHGQVYMIQG displayed an amyloid nucleation score of 2.17 ± 0.13. Consider LLCVGHFFLQ, for which the amyloid nucleation score result was “inactive”. Substance QDKYTSEECESRFVTYETVV came in with an amyloid nucleation score of 0.695 ± 0.57. CFQYTQTNVMRFSYGIGHRE registered an amyloid nucleation score of 2.12 ± 0.18.

FSSQFHLRAYNTIRCSLDDF: the amyloid nucleation score came to 0.534 ± 0.8. For KSASCKPIMSYPKVLPS the value was 0.208 ± 0.8; for FGWGN, 0.09 ± 0.51; for WARFEKV, “inactive”.

On to CLGGTLYLRCFIVDLLWSTG, for which the amyloid nucleation score was -0.219 ± 0.55. As for ASFFDTVNCSWFSGIFVMGF, the amyloid nucleation score worked out at 1.59 ± 0.21. In turn, FFEFRCWVMKGFWPLRMKDM displayed an amyloid nucleation score of 0.414 ± 0.65.

RSDMCSAMIFWSELVKWQDG displayed an amyloid nucleation score of 3.84 ± 0.091.

ASRPWMMYPHESARRSR: the amyloid nucleation score worked out at 1.6 ± 0.22.

Take DAWRFSTNSLHSTAYYYYFL: the amyloid nucleation score amounted to 5.781 ± 0.043. As for YRVFRFCNMASYLVSICHNG, the amyloid nucleation score was -1.2 ± 0.64. For LFWFIYGSYRTVRACGRYSN the value was 0.516 ± 0.64. On to HKQRSSASKSV, for which the amyloid nucleation score was -0.321 ± 0.39. The substance STSLVTIPCGGFGFKYSANP showed an amyloid nucleation score of 0.171 ± 0.33. RYCFT came in with an amyloid nucleation score of 1.03 ± 0.38. The substance VIFYRSFTVS displayed an amyloid nucleation score of 3.64 ± 0.053. With RSITGCDWFLH, the amyloid nucleation score came out at 0.063 ± 1.1. LVDKVYNDAILLVWDNESRT yielded an amyloid nucleation score of -0.464 ± 0.64. Substance TDIRTSGDERWAFDSMRTGD displayed an amyloid nucleation score of 0.701 ± 0.37. As for LSMYDLYSMAR, the amyloid nucleation score entry is “inactive”.

SCFGRKLLLLDGA registered an amyloid nucleation score of 0.203 ± 0.28. The substance FAGYECIE showed an amyloid nucleation score of -0.881 ± 0.37. On to LCTGTCDTSAHVSSIYKFRD, for which the amyloid nucleation score is -0.712 ± 1.1.

Take YERVRRSVYSSMFFSLFNTR: the amyloid nucleation score is -0.357 ± 1.1. In turn, SKQTRYSSCGIISGLVDPFA yielded an amyloid nucleation score of -0.329 ± 0.23. On to EVWYTGYVCLWMYIAWINID, for which the amyloid nucleation score result is “inactive”.

Substance CLVAQNVTVMVSGV came in with an amyloid nucleation score of 5.94 ± 0.065. FRMFNVGFPDRPIMFRVDRL displayed an amyloid nucleation score of 0.41 ± 0.74. Take LIARSLGFKNVWS: the amyloid nucleation score was -0.575 ± 0.54. For LSPIVVPLYKQLDIFGVRRN the value was “inactive”; for GNMYLSEVNVTC, -0.78 ± 1.1; for PLHRWLQDR, -0.037 ± 0.79. Take FLQRSRNMNCLRGHDFNSNG: the amyloid nucleation score was determined as 0.053 ± 1.1.

Substance TLSTGIFLLHLAYSSLSIDS registered an amyloid nucleation score of 0.637 ± 0.35. LFSHL displayed an amyloid nucleation score of -1.4 ± 0.54.

LLVAEVV came in with an amyloid nucleation score of 0.538 ± 0.49. YRACCVYNLGEVEWGVWVVC had an amyloid nucleation score of -0.31 ± 0.21. In the case of TNEAIEMS, the amyloid nucleation score entry is “inactive”. DSFLKKCSLIRIQVRAVFVL returned an amyloid nucleation score of -1.14 ± 1.
